Where “and” joins values, the source holds several entries; their conditions need not be identical. Equal entries are not always repeated. Where two headings read alike, the source gives them in different places.
What was measured:
[1] = target: sst4 receptor (expressed in stably transfected CHO-K1 cells, CHO-R4); assay: PEG precipitation of solubilised radioligand-receptor complex from CHO-R4 cells
[2] = target: rat sst1 receptor (expressed in stably transfected CHO-K1 cells, CHO-R1) (rat) (UniProt P28646); assay: PEG precipitation of solubilised radioligand-receptor complex from CHO-R1 cells
[3] = target: rat sst1 receptor (expressed in stably transfected CHO-K1 cells, CHO-R1) (rat) (UniProt P28646); assay: dissociation from the receptor complex immunoprecipitated with R1-201 from CHO-R1 cells, no guanine nucleotide
[4] = target: rat sst1 receptor (expressed in stably transfected CHO-K1 cells, CHO-R1) (rat) (UniProt P28646); assay: PEG precipitation of solubilised radioligand-receptor complex from CHO-R1 cells; remark: listed apart in the source
[5] = target: sst3 receptor (expressed in stably transfected CHO-K1 cells, CHO-R3); assay: PEG precipitation of solubilised radioligand-receptor complex from CHO-R3 cells
[6] = target: rat sst1 receptor (expressed in stably transfected CHO-K1 cells, CHO-R1) (rat) (UniProt P28646); assay: PEG precipitation of solubilised radioligand-receptor complex from CHO-R1 cells; remark: listed apart in the source
[7] = target: rat sst2A receptor (expressed in stably transfected CHO-K1 cells, CHO-R2 / CHO-R2A) (rat) (UniProt P30680); assay: dissociation from the receptor complex immunoprecipitated with R2-88 from GH4C1 cells, no guanine nucleotide
[8] = target: rat sst1 receptor (expressed in stably transfected CHO-K1 cells, CHO-R1) (rat) (UniProt P28646); assay: PEG precipitation of solubilised radioligand-receptor complex from CHO-R1 cells; remark: listed apart in the source
[9] = target: rat sst2A receptor (expressed in stably transfected CHO-K1 cells, CHO-R2 / CHO-R2A) (rat) (UniProt P30680); assay: PEG precipitation of solubilised radioligand-receptor complex from CHO-R2 cells
[10] = target: rat sst2A receptor (expressed in stably transfected CHO-K1 cells, CHO-R2 / CHO-R2A) (rat) (UniProt P30680); assay: as above; remark: listed apart in the source
[11] = target: sst4 receptor (expressed in stably transfected CHO-K1 cells, CHO-R4); assay: PEG precipitation of solubilised radioligand-receptor complex from CHO-R4 cells; remark: listed apart in the source
[12] = target: rat sst1 receptor (expressed in stably transfected CHO-K1 cells, CHO-R1) (rat) (UniProt P28646); assay: PEG precipitation of solubilised radioligand-receptor complex from CHO-R1 cells; remark: listed apart in the source
[13] = target: sst4 receptor (expressed in stably transfected CHO-K1 cells, CHO-R4); assay: PEG precipitation of solubilised radioligand-receptor complex from CHO-R4 cells; remark: listed apart in the source
[14] = target: rat sst2A receptor (expressed in stably transfected CHO-K1 cells, CHO-R2 / CHO-R2A) (rat) (UniProt P30680); assay: PEG precipitation of solubilised radioligand-receptor complex from CHO-R2 cells; remark: listed apart in the source

Precipitated Complex (cpm), PEG [1]: 10000 cpm | Precipitated Complex (cpm), PEG [2]: 7060 cpm | percent of specifically bound ligand dissociated [3]: 53% | Precipitated Complex (cpm), PEG [4]: 706 cpm | Precipitated Complex (cpm), PEG [5]: 683 cpm | Precipitated Complex (cpm), PEG [6]: 8350 cpm | percent of specifically bound ligand dissociated [7]: 12% | Precipitated Complex (cpm), PEG [8]: 7100 cpm | Precipitated Complex (cpm), PEG [9]: 8840 cpm and 6330 cpm | Precipitated Complex (cpm), PEG [10]: 8490 cpm | Precipitated Complex (cpm), PEG [11]: 4980 cpm and 10000 cpm | Precipitated Complex (cpm), PEG [12]: 15100 cpm | Precipitated Complex (cpm), PEG [13]: 12500 cpm | Precipitated Complex (cpm), PEG [14]: 16200 cpm
Substance: [125I-Tyr11]SRIF (peptide)
